Experimental data from patent US20070110818A1, “Milk fractions and milk preparations for treating and/or preventing cox-2 mediated diseases” (priority 2003, published 2007).

Molecular target: T1, COX-2 (Homo sapiens, UniProt P35354)
T1 construct: treated with 100 nM (nmol/l) phorbol 12-myristate 13-acetate for 6 h at 37° C. to induce COX-2 isoenzyme; endogenous in cells; host or cells: HUV-EC-C (ATCC CRL1730), PMA-induced
T1 sequence (P35354 18-604): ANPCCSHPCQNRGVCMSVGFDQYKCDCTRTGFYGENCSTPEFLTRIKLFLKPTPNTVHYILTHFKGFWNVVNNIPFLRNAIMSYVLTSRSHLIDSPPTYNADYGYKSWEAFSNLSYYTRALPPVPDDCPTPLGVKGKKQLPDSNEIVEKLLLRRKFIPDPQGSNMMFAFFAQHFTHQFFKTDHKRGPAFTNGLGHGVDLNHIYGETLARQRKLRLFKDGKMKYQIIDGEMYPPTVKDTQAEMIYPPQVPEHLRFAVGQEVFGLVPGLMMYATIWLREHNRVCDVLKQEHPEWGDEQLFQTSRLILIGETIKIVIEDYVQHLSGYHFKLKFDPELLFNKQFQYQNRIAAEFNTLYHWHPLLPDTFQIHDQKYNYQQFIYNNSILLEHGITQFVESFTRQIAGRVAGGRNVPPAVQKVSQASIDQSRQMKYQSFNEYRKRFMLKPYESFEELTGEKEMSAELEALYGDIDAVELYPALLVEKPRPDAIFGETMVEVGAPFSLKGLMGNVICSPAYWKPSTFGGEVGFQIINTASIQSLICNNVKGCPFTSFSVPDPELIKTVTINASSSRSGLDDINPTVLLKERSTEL
Assay: COX-2 screening in PMA-induced HUV-EC-C cells (Prostaglandine-E2 production by RIA)
Assay type: cell-based
Protocol: HUV-EC-C cells (a permanent endothelial cell line derived from the vein of a normal human umbilical cord; ATCC CRL1730; M. Miralpeix, M. Camacho et al., Brit. J. Pharmacol. 121 (1997), 171-180), were seeded onto 96-well plates (RPMI 1640+10% FCS) and treated with 100 nM (nmol/l) phorbol 12-myristate 13-acetate for 6 h at 37° C. to induce COX-2 isoenzyme. 50 μM (μmol/l) arachidonic acid were then added and the cells were incubated in the presence of test compounds or mixtures for 30 min at 37° C. Prostaglandine-E2 production was measured by radioimmuno assay (RIA) and the radioactivity determined with a scintillation counter (Topcount, Packard) using a liquid scintillation cocktail (Packard).
The results obtained are expressed as a percent of control values and as a percent inhibition of control values obtained in the presence of the test compounds. The control values correspond to the COX-2 activity of HUV-EC-C cells after stimulation with Phorbol Myristate Acetate (PMA) during 6 hours at 37° C. (can be done also with Tumor Necrosis Factor type alpha: TNFα) in absence of test compound.
The concentration causing a half-maximal inhibition of control values (IC50 value) and Hill coefficients (nH) were determined for the reference compounds (cycloheximide) by nonlinear regression analysis of their inhibition curves. These parameters were obtained by Hill equation curve fitting. […]

B1: Lactoferrin (protein, UniProt P02788 20-710, looked up)
Lactotransferrin: GRRRSVQWCAVSQPEATKCFQWQRNMRKVRGPPVSCIKRDSPIQCIQAIAENRADAVTLDGGFIYEAGLAPYKLRPVAAEVYGTERQPRTHYYAVAVVKKGGSFQLNELQGLKSCHTGLRRTAGWNVPIGTLRPFLNWTGPPEPIEAAVARFFSASCVPGADKGQFPNLCRLCAGTGENKCAFSSQEPYFSYSGAFKCLRDGAGDVAFIRESTVFEDLSDEAERDEYELLCPDNTRKPVDKFKDCHLARVPSHAVVARSVNGKEDAIWNLLRQAQEKFGKDKSPKFQLFGSPSGQKDLLFKDSAIGFSRVPPRIDSGLYLGSGYFTAIQNLRKSEEEVAARRARVVWCAVGEQELRKCNQWSGLSEGSVTCSSASTTEDCIALVLKGEADAMSLDGGYVYTAGKCGLVPVLAENYKSQQSSDPDPNCVDRPVEGYLAVAVVRRSDTSLTWNSVKGKKSCHTAVDRTAGWNIPMGLLFNQTGSCKFDEYFSQSCAPGSDPRSNLCALCIGDEQGENKCVPNSNERYYGYTGAFRCLAENAGDVAFVKDVTVLQNTDGNNNEAWAKDLKLADFALLCLDGKRKPVTEARSCHLAMAPNHAVVSRMDKVERLKQVLLHQQAKFGRNGSDCPDKFCLFQSETKNLLFNDNTECLARLHGKTTYEKYLGPQYVAGITNLKKCSTSPLLEACEFLRK
- cyclooxygenase-2 inhibiting activity (in words): not to have any cyclooxygense-2 inhibiting activity
